# Experimental data taken from patent US10570379B2, “Polypeptides for carbon-carbon bond formation and uses thereof” (INVISTA North America S.à.r.l., priority 2015, dated 2020).
# Changes are numbered by the printed parent chain. In names and notes the source's numbering stands.
# B1: S60A: YdiF (SEQ ID NO: 1) mutant, alanine for serine at position 60, N-terminal His-tag (protein, listed as Clostridium propionicum)
# chain: MRKVPIITADEAAKLIKDGDTVTTSGFVGNAIPEALDRAVEKRFLETGEPKNITYVYCGAQGNRDGRGAEHFAHEGLLKRYIAGHWATVPALGKMAMENKMEAYNVSQGALCHLFRDIASHKPGVFTKVGIGTFIDPRNGGGKVNDITKEDIVELVEIKGQEYLFYPAFPIHVALIRGTYADESGNITFEKEVAPLEGTSVCQAVKNSGGIVVVQVERVVKAGTLDPRHVKVPGIYVDYVVVADPEDHQQSLDCEYDPALSGEHRRPEVVGEPLPLSAKKVIGRRGAIELEKDVAVNLGVGAPEYVASVADEEGIVDFMTLTAESGAIGGVPAGGVRFGASYNADALIDQGYQFDYYDGGGLDLCYLGLAECDEKGNINVSRFGPRIAGCGGFINITQNTPKVFFCGTFTAGGLKVKIEDGKVIIVQEGKQKKFLKAVEQITFNGDVALANKQQVTYITERCVFLLKEDGLHLSEIAPGIDLQTQILDVMDFAPIIDRDANGQIKLMDAALFAEGLMGLKEMKS
# modifications: N-terminal His-tag
# B2: C112A: YdiF (SEQ ID NO: 1) mutant, alanine for cysteine at position 112, N-terminal His-tag (protein, listed as Clostridium propionicum)
# chain: B1 chain with A60S, C112A
# modifications: N-terminal His-tag
# B3: C390A: YdiF (SEQ ID NO: 1) mutant, alanine for cysteine at position 390, N-terminal His-tag (protein, listed as Clostridium propionicum)
# chain: B1 chain with A60S, C390A
# modifications: N-terminal His-tag
# B4: E324L: YdiF mutant, leucine for the glutamate in position 324, SEQ ID NO: 4 (protein)
# chain: MGHHHHHHSSGLVPRGSMRKVPIITADEAAKLIKDGDTVTTSGFVGNAIPEALDRAVEKRFLETGEPKNITYVYCGSQGNRDGRGAEHFAHEGLLKRYIAGHWATVPALGKMAMENKMEAYNVSQGALCHLFRDIASHKPGVFTKVGIGTFIDPRNGGGKVNDITKEDIVELVEIKGQEYLFYPAFPIHVALIRGTYADESGNITFEKEVAPLEGTSVCQAVKNSGGIVVVQVERVVKAGTLDPRHVKVPGIYVDYVVVADPEDHQQSLDCEYDPALSGEHRRPEVVGEPLPLSAKKVIGRRGAIELEKDVAVNLGVGAPEYVASVADEEGIVDFMTLTALSGAIGGVPAGGVRFGASYNADALIDQGYQFDYYDGGGLDLCYLGLAECDEKGNINVSRFGPRIAGCGGFINITQNTPKVFFCGTFTAGGLKVKIEDGKVIIVQEGKQKKFLKAVEQITFNGDVALANKQQVTYITERCVFLLKEDGLHLSEIAPGIDLQTQILDVMDFAPIIDRDANGQIKLMDAALFAEGLMGLKEMKS
# B5: Bdigene 273: Acetate CoA-transferase YdiF from Firmicutes bacterium CAG, Uniprot R5ADR5, SEQ ID NO: 6 (protein)
# chain: MARQVKVITAAEAAALIKNGDTVTTSGFVASAIPEALDRAVEERFLATGEPRDITYVYCGSQGNKDGRGAEHFAHEGLLKRYIAGHWATVPALQKMALENKMEAYNVSQGALCHLFRDIAAHRPGCFTKVGLGTFIDPRNGGGKVNDVTKEDIIELVNIKGQDYLFYPAFPINVALIRGTYADESGNISFEKEVSPLEGTSVCQAVKNSGGIVVVQVEKLVKAGTLDPRLVKVPGIYVDYVVVADPKDHQQTLDCDYDPALSGEMRNPDVAPEPLPLSAKKIIGRRGAVELEKDVAVNLGVGAPEYVASVANEEGIGDFMTLTVEGGAVGGVPAGGIRFGSAYNADALLDQGYQFDFYDGGGLDLCYLGLAECDPHGSINVSRFGPRIAGCGGFINITQCTPKVFFCGTFTAGGLKVKVEDGKVVIAQEGKNKKFVKSVEQVTFNGDIANKNGQHVMYITERCVFVLKEDGLHLTEIAPGIDLQTQILDQMEFEPIIDRNADGSITLMDAKLFADGLMGLKEMKEGK
# B6: Bdigene 274: Acetate CoA-transferase YdiF from Megasphaera elsdenii DSM 20460, Uniprot G0VND6, SEQ ID NO: 7 (protein, listed as Megasphaera elsdenii)
# chain: MRKVEIITAEQAAQLVKDNDTITSIGFVSSAHPEALTKALEKRFLDTNTPQNLTYIYAGSQGKRDGRAAEHLAHTGLLKRAIIGHWQTVPAIGKLAVENKIEAYNFSQGTLVHWFRALAGHKLGVFTDIGLETFLDPRQLGGKLNDVTKEDLVKLIEVDGHEQLFYPTFPVNVAFLRGTYADESGNITMDEEIGPFESTSVAQAVHNCGGKVVVQVKDVVAHGSLDPRMVKIPGIYVDYVVVAAPEDHQQTYDCEYDPSLSGEHRAPEGATDAALPMSAKKIIGRRGALELTENAVVNLGVGAPEYVASVAGEEGIADTITLTVEGGAIGGVPQGGARFGSSRNADAIIDHTYQFDFYDGGGLDIAYLGLAQCDGSGNINVSKFGTNVAGCGGFPNISQQTPNVYFCGTFTAGGLKIAVEDGKVKILQEGKAKKFIKAVDQITFNGSYAARNGKHVLYITERCVFELTKEGLKLIEVAPGIDIEKDILAHMDFKPIIDNPKLMDARLFQDGPMGLKK
# B7: Bdigene 271: Acetate CoA-transferase YdiF from Salmonella enterica subsp. houtenaeserovar, Uniprot V1HBS2, SEQ ID NO: 9 (protein, listed as Salmonella enterica)
# chain: MLSTKQFTAQQAVELIQDGDKVILGGFIGAVVPEAIEKAIEDKFLAEGHPCNLGLIFAAGQGDAKEKAINRLAHEGLVSSAIGGHWGLIPGLQRLASEGKITGYNLPQGVICHLLRDSAAGKAGTLTHVGLGTFVDPRIEGGKINAKTTEDIVTYININDVENLLYKKLDANIAILRGTTADTHGNITMEDECLILENLAAAQLVHNQGGKVIVQVKRIVPKGSLDPLQVKIPGIFVDALVVADGEAHMQTFAEAMNENYVGRGEKGIRERKIRPLDVKKVIARRAAMELKKNAIVNYGIGIPEIIAQVADEENVTQELIATVEPGAIGGSPAGGLSFGASAFPEAIITQDQMFDFYDGGGLDQAFLGLAETDAKGDLNVSKFGVKIAGCGGFINITQNAKHVFFCGSFTAGDSDIIVEEGKLIIRRDGQIKKFIKHVQQITFSSDTARKNHKPVLYITERAVFRLAAETIELIEIAPGIDLQHDILDKMEFRPTISPALKEMDKRIFSEALMSLSLK
# B8: Bdigene 275: Acetyl-CoA acetyltransferase from Dyadobacter fermentans, Uniprot C6VTZ3, SEQ ID NO: 8 (protein)
# chain: MNAYIVAGYRTAVGKAPRGGFRFTRPDDLGAAVIKHLLEKTPQLDPTRVDDVIVGNAVPEAEQGMQMGRYVALLSLPKNVSGITINRYCGSGVEAIAMASAKIHAGMAECIIAGGTESMSLVPTMGWKTALNYEIAHTNPDYYLSMGLTAEQVAQDFKISREAQDNFSFQSHQKALRAQKEGWFAEGIVPVTVKETYFDQASGKKKTKETVISQDEGPRADTTLEALNKLKPVFAAGGSVTAGNSSQTSDGAAFVLVMSERLVNELGLKPIARMMSYATAGVDPRVMGIGPVAAVPLALKQAGLQLKDIQQVELNEAFAAQSLAVIQELGIDPEIVNPNGGAIALGHALGSTGARLSVQLFNEMKRRDQKYGMVTACVGGGQGVAGIYERLN
# modifications: Dyadobacter fermentans
# B9: Bdigene 0343: E-cinnamoyl-CoA: R-phenyilactate CoA transferase from Clostridium sporogenes, Uniprot Q93AM1 (protein, UniProt Q93AM1 1-412, looked up)
# Cinnamoyl-CoA:phenyllactate …: MENNTNMFSGVKVIELANFIAAPAAGRFFADGGAEVIKIESPAGDPLRYTAPSEGRPLSQEENTTYDLENANKKAIVLNLKSEKGKKILHEMLAEADILLTNWRTKALVKQGLDYETLKEKYPKLVFAQITGYGEKGPDKDLPGFDYTAFFARGGVSGTLYEKGTVPPNVVPGLGDHQAGMFLAAGMAGALYKAKTTGQGDKVTVSLMHSAMYGLGIMIQAAQYKDHGLVYPINRNETPNPFIVSYKSKDDYFVQVCMPPYDVFYDRFMTALGREDLVGDERYNKIENLKDGRAKEVYSIIEQQMVTKTKDEWDNIFRDADIPFAIAQTWEDLLEDEQAWANDYLYKMKYPTGNERALVRLPVFFKEAGLPEYNQSPQIAENTVEVLKEMGYTEQEIEELEKDKDIMVRKEK
# Test: Activity of YdiF mutant enzymes (evaluation of potential active sites)
# Type: biochemical
# Details: studied as in Example 2
# Experimental: YdiF mutants were prepared using the relevant primers to introduce the mutated bases via the Quick change lightning kit (Agilent, code product: 210518-5), and cloned into E. coli. In addition, all the proteins used in this experiment have the following extra amino acids added in the N-terminal extremity of the original protein sequence (SEQ ID NO:1): […]. Those additional amino acids correspond to: two amino acids (M and G), a 6×His-tag followed by a 3 amino acids linker (SSG), and a specific proteolytic cleavage site (thrombin site, underlined) (SEQ ID NO: 22). All the sequences were confirmed by DNA sequencing.
# (§1) Acetyl-CoA was used at a final concentration of 1.5 mM and 30 mM of the substrate being studied (e.g. carboxylic acid salts, such as sodium acrylate) or 1.5 mM of propionyl-CoA in 50 mM Hepes buffer (pH 7.5). The reaction was started by addition of 0.5 mg/mL of YdiF pure protein or mutants to a final volume of 250 μL and incubated for 1 to 10 hours at 30° C.
# (§2) All samples were prepared in triplicate and spun down at 15000 g for 20 min at 4° C. Detection of the thiol product (e.g. acryloyl-CoA) synthesized from CoA-transferase activity and the keto-thiol product (e.g. 3-oxopent-4-enoyl-CoA) due to putative thiolase activity of YdiF (or homologues) was carried out by Liquid Chromatography coupled to a qTof-Mass spectrometry (in positive mode), using a C18 column (Zorbax Eclipse C18, 2.1×50 mm, 1.8μ, Agilent, code product: 959757-902) and a gradient of 10 mM ammonium acetate and acetonitrile as mobile phase.
# Mutations were introduced as described in Example 1 at the following positions previously found to be potentially involved in the active site of other β-ketothiolases: C258A, S60A, C112A, S38A, C390A. Activity of the mutant enzymes was studied as described in Example 2.
# Mutations were introduced as described in Example 1 to replace the glutamate in position 324 of YdiF (see Selmer et al., 2002) with glycine (mutant E324G) or leucine (E324L). Activity of the mutant enzymes was studied as described in Example 2.
Molecule,thiolase activity,transferase activity
B1,None of the mutations abolished,None of the mutations abolished
B2,None of the mutations abolished,None of the mutations abolished
B3,None of the mutations abolished,None of the mutations abolished
B4,–,only partially abolished

# Test: Screen for dual transferase/ketothiolase activity with acetyl-CoA and sodium acrylate, LC-MS detection
# Type: biochemical
# Details: 3-oxopent-4-enoyl-CoA via thiolase activity
# Experimental: as §1
# Two controls were made from similar mixture except that the enzymes were inactivated by heating-up at 95° C. for 20 min or they were replaced by Buffer C.
# as §2
# YdiF from Clostridium propionicum belongs to the enzymatic class EC2.8.3.8. Other members of this enzyme class with similar structural features to YdiF, as well as proteins with a CoA-transferase activity from close-by enzymatic classes, were screened for dual transferase/ketothiolase activity as described in Example 2. Acetyl-CoA and sodium acrylate were provided as substrates. LC-MS was used to detect the thiol-product (propenoyl-CoA) synthesized via the transferase activity and the ketothiol-product (3-oxopent-4-enoyl-CoA) synthesized via the thiolase activity, as described in Example 2.
row,Molecule,ketothiol-product
1,B5,✓
2,B6,✓
3,B7,✓

# Same assay, conditions: propenoyl-CoA via transferase activity
row,Molecule,thiol-product
1,B5,✓
2,B6,✓
3,B7,✓

# Test: Solubility of the expressed protein (Table 3)
# Details: protein expressed in E. coli
# Experimental: From a fresh LB plate containing the desired clone transformant, one colony (or small scratch) was picked to inoculate 25 mL of LB supplemented with the relevant antibiotic and the pre-culture was incubated overnight at 37° C., 230 rpm. The following morning, the TB auto-induced medium (Merck/Code product: 71491-5) was prepared by mixing 60 g TB/L supplemented with 10 mL Glycerol/L of TB and microwaved during 3+2 minutes at full power. The TB was cooled down before use and splitting it in sterile flasks. Then, the pre-culture incubated overnight in LB was centrifuged and the supernatant discarded. The obtained pellet was resuspended with 5 mL of freshly prepared TB medium and used to inoculate 500 mL of TB dispensed in sterile flasks and supplemented with the appropriate antibiotic. The inoculated medium was incubated at 28° C. for at least 20 h, 230 rpm.
# The culture was centrifuged at least at 3000 g/20 min/4° C. and the pellet used immediately or stored at −80′C.
# The pellets (fresh or thawed) were resuspended in 10 to 20 mL of Buffer A (50 mM Hepes+150 mM NaCl+40 mM Imidazole+5% Glycerol−pH 7.5). The resuspended cells were then sonicated in ice for, 5 min at 37% Amplitude with 5″ ON and 15″ OFF sonication pulse. The sonicated cells were centrifuged for at least 20 min at 15500 g and 4° C. The supernatant containing the soluble fraction of proteins was recovered, filtered using 0.45 or 0.2 um filters, and used for His-trap protein purification.
row,Molecule,Solubility
1,B5,✓
2,B6,✓
3,B8,✓
4,B9,✓
